# Patent publication US20230303654A1 (CITY OF HOPE, published 2023)
# Where two headings read alike, the source gives them in different places.
# B1: Anti-spike RBD Ab37 scFv (scFv)
# scFv: ELMLTQPPSVSVAPGQTARITCGGNNIGSKSVHWYQQKPGQAPVLVVYDDSDRPSGIPERFSGSNSGNTATLTISRVEAGDEADYYCQVWDNTLLFGGGTELTVLGGGSSRSSGVQLVESGGGLVQPGGSLRLSCSASGFTFSSYAMHWVRQAPGKGLEYVSGISSNGGGTHYADSVKGRFSISRDNSKNTLYLQMSSLRAEDTAVYYCVKDDSGSYFSLFDHWGQGTLVTVSSASTKGPSV
# B2: Anti-spike RBD Ab27 scFv (scFv)
# scFv: ELQMTQSPSSLSASVGDRVTITCRASQSISSYLNWYQQKPGKAPKLLIYAASSLQSGVPSRFSGSGSGTDFTLTISSLQPEDFATYYCQQANSFPFTFGPGTKVDIKGGSSRSSQVQLVQSGAEVKKPGASVKVSCKASGYTFTSYGISWVRQAPGQGLEWMGWVNPNGGHTGYAQKFQGRVTMTRHTATNTVYMELSSLTSDDTAVYYCARGKGYYYGMDVWGQGTTVLVSSASTKGPSV
# B3: Anti-spike RBD Ab39 scFv (scFv)
# scFv: ELVLTQSPGTLSLSPGERATLSCRASQSLYNNFLAWYQQKPGQAPRLLIYAASNRATGIPDRFSGSGSGTDFTLTISRLEPEDFAVYYCQQYGSSPGYTFGQGTKLEIKGGSSRSSQVQLVQSGAEVKKPGSSVKVSCKASGGTFSSYAISWVRQAPGQGLEWMGGIIPIFGTANYAQKFQGRVTITADESTSTAYMELSSLRSEDTAVYYCARTLRQYYYYGMDVWGQGTTVTVSSGSASAPTL
# Assays:
# [1] = target: T1, purified 6× His-tagged SARS-CoV-2 spike protein (ELISA coat, Example 12) (SARS-CoV-2, UniProt P0DTC2 14-1213)
# [2] = target: T1, purified 6× His-tagged SARS-CoV-2 spike …; remark: listed apart in the source
binder,measurement,setting,value
B1,EC50,[1],5.28 nM
same,EC50,[2],5.18 nM
B2,EC50,[1],8.85 nM
B3,EC50,[1],4.93 nM
